From patent US20250353930A1 (EXCELLERGY, published 2025)

T1: polyclonal human IgE (human)
T1 construct: Used at 10 nM to sensitise Hoxb8 mast cells overnight; also called surface IgE on Hoxb8 mast cells
T1 constant: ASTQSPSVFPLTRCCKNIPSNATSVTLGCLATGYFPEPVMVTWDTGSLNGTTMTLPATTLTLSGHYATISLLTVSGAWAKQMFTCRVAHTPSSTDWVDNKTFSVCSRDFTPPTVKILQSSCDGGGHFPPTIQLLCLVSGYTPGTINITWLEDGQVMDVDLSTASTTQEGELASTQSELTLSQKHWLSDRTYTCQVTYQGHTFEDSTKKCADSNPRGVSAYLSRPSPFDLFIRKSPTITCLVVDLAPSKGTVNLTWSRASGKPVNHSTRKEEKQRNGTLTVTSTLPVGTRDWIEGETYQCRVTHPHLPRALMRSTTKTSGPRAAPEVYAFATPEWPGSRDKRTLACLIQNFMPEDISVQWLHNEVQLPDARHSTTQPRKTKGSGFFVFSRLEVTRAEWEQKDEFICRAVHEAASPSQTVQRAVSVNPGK

B1: C5 (antibody, human IgG1, kappa)
heavy: not shown
light: DIQLTQSPSSLSASVGDRVTITCRASKSVDADGDSYMNWYQAKPGRHPKLLIYAASYLESGVPSRFSGSGSGTDFTLTISSLQPEDFATYYCQQSHEDPYTFGQGTKVEIKGRTVAAPSVFIFPPSDEQLKSGTASVVCLLNNFYPREAKVQWKVDNALQSGNSQESVTEQDSKDSTYSLSSTLTLSKADYEKHKVYACEVTHQGLSSPVTKSFNRGEC
notes: Whole IgG, comparator; also called Comparator 5; Comparator_5
B2: C6 (antibody, human IgG1, kappa)
heavy: not shown
light: DIQLTQSPSSLSASVGDRVTITCRASKSVDADGDSYMNWYQAKPGRHPKLLIYAASYLESGVPSRFSGSGSGTDFTLTISSLQPEDFATYYCQQSHEDPYTFGQGTKVEIKRTVAAPSVFIFPPSDEQLKSGTASVVCLLNNFYPREAKVQWKVDNALQSGNSQESVTEQDSKDSTYSLSSTLTLSKADYEKHKVYACEVTHQGLSSPVTKSFNRGEC
notes: Whole IgG, comparator; also called Comparator 6; Comparator_6
B3: C4 (antibody, human IgG1, kappa)
heavy: not shown
light: DIQLTQSPSSLSASVGDRVTITCRASKSVDADGDSYMNWYQAKPGRHPKLLIYAASYLESGVPSRFSGSGSGTDFTLTISSLQPEDFATYYCQQSHEDPYTFGQGTKVEIKGGRTVAAPSVFIFPPSDEQLKSGTASVVCLLNNFYPREAKVQWKVDNALQSGNSQESVTEQDSKDSTYSLSSTLTLSKADYEKHKVYACEVTHQGLSSPVTKSFNRGEC
notes: Whole IgG, comparator; also called Comparator 4; Comparator_4

Target: T1, polyclonal human IgE
Assay: flow cytometry of surface IgE on Hoxb8 mast cells with human FcεRI, 20 h; dissociation of IgE from FcεRI
For B1, the IC50 was 1.07 µM.
B2 showed an IC50 of 2.01 µM.
With B3 the IC50 was 0.815 µM.
